In experiment [1] the target is T1, GFP-tagged CSF1R immunoprecipitated from HEK293T cells (UniProt P09581).
T1 sequence: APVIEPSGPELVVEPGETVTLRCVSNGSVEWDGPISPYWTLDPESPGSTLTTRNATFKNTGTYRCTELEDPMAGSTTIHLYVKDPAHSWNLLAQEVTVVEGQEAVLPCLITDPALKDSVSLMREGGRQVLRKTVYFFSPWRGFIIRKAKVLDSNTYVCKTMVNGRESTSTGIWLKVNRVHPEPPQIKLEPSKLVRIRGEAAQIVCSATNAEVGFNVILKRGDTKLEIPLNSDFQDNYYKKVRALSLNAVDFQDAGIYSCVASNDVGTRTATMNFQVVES

Experiment [2] addresses T2, GFP-tagged CSF1R immunoprecipitated from HEK293T cells (UniProt P09581 20-298).
T2 sequence: T1 sequence
As to the kind of experiment: cell-based or functional assay.

The target in experiment [3] is T3, CSF1R protein immobilised for SPR (UniProt P09581 20-298).
T3 construct: CSF1R protein used at 30 µg/ml for covalent immobilisation
T3 sequence: T1 sequence
As to the kind of experiment: SPR; Open SPR (Nicoya); CSF1R (30 µg/ml) covalently immobilised on COOH sensor chip by EDC/NHS; parvalbumin injected from low to high concentrations, 20 µl/min for 5 min; analysed with Trace Drawer. The note with it: both partners purified. (In general: In SPR one partner is held on a chip, and binding of the other changes the refractive index at the surface.)

From article PMC9177846, “Targeting parvalbumin promotes M2 macrophage polarization and energy expenditure in mice” (Nature Communications, 2022) come the findings set out here.

B1: Macrophage colony-stimulating factor (ligand)
chain: KEVSEHCSHMIGNGHLKVLQQLIDSQMETSCQIAFEFVDQEQLDDPVCYLKKAFFLVQDIIDETMRFKDNTPNANATERLQELSNNLNSCFTKDYEEQNKACVRTFHETPLQLLEKIKNFFNETKNLLEKDWNIFTKNCNNSFAKCSSRDVVTKPDCNCLYPKATPSSDPASASPHQPPAPSMAPLAGLAWDDSQRTEGSSLLPSELPLRIEDPGSAKQRPPRSTCQTLESTEQPNHGDRLTEDSQPHPSAGGPVPGVEDILESSLGTNWVLEEASGEASEGFLTQEAKFSPSTPVGGSIQAETDRPRALSASPFPKSTEDQKPVDITDRPLTEVNPMRPIGQTQNNTPEKTDGTSTLREDHQEPGSPHIATPNPQRVSNSATPVAQLLLPKSHSWGIVLPLGELEGKRSTRDRRSPAELEGGSASEGAARPVARFNSIPLTDTGHVEQHEGSSDPQIPESVFHLLVPGIILVLLTVGGLLFYKWKWRSHRDPQTLDSSVGRPEDSSLTQDEDRQVELPV
In experiment [1], B1 came in with an ELK1-Luc reporter: concentration-response of MCSF on CSF1R activation in cells stably expressing CSF1R (EC50) of 0.36 nM.

B2: parvalbumin (recombinant protein) (natural protein, UniProt P32848 1-110, looked up)
chain: MSMTDVLSAEDIKKAIGAFAAADSFDHKKFFQMVGLKKKNPDEVKKVFHILDKDKSGFIEEDELGSILKGFSSDARDLSAKETKTLLAAGDKDGDGKIGVEEFSTLVAES
notes: parvalbumin, recombinant; The only source printed for a recombinant parvalbumin is human parvalbumin 15333-H08E (Sino Biological), named for the PBMC experiments only; also called PVALB; rPVLAB; source: recombinant protein
What is called Kd is the concentration at which binding is half-saturated. A higher Kd goes with weaker binding. B2: the “ELK1-Luc reporter: concentration-response of parvalbumin on CSF1R activation in the presence of MCSF (IC50)” value in experiment [2] stood at 3.26 nM. In addition, the Kd in experiment [3] stood at 3650 nM.
